According to IntAct's records for PubMed 22322943:

B1: Axin-2 (Mus musculus), O88566 (parent)
chain: MSSAVLVTLLPDPSSSFREDAPRPPVPGEEGETPPCQPSVGKVQSTKPMPVSSNARRNEDGLGEPEGRASPDSPLTRWTKSLHSLLGDQDGAYLFRTFLEREKCVDTLDFWFACNGFRQMNLKDTKTLRVAKAIYKRYIENNSVVSKQLKPATKTYIRDGIKKQQIGSVMFDQAQTEIQAVMEENAYQVFLTSDIYLEYVRSGGENTAYMSNGGLGSLKVLCGYLPTLNEEEEWTCADLKCKLSPTVVGLSSKTLRATASVRSTETAENGFRSFKRSDPVNPYHVGSGYVFAPATSANDSELSSDALTDDSMSMTDSSVDGVPPYRMGSKKQLQREMHRSVKANGQVSLPHFPRTHRLPKEMTPVEPAAFAAELISRLEKLKLELESRHSLEERLQQIREDEEKEGSEQALSSRDGAPVQHPLALLPSGSYEEDPQTILDDHLSRVLKTPGCQSPGVGRYSPRSRSPDHHHQHHHHQQCHTLLPTGGKLPPVAACPLLGGKSFLTKQTTKHVHHHYIHHHAVPKTKEEIEAEATQRVRCLCPGGTDYYCYSKCKSHPKAPEPLPGEQFCGSRGGTLPKRNAKGTEPGLALSARDGGMSSAAGAPQLPGEEGDRSQDVWQWMLESERQSKSKPHSAQSIRKSYPLESACAAPGERVSRHHLLGASGHSRSVARAHPFTQDPAMPPLTPPNTLAQLEEACRRLAEVSKPQKQRCCVASQQRDRNHSAAGQAGASPFANPSLAPEDHKEPKKLASVHALQASELVVTYFFCGEEIPYRRMLKAQSLTLGHFKEQLSKKGNYRYYFKKASDEFACGAVFEEIWDDETVLPMYEGRILGKVERID

Variants of: B1
Conditions: with cdc20_human CDC20, Q12834
Sequence of cdc20_human CDC20, Q12834 (Q12834 whole entry): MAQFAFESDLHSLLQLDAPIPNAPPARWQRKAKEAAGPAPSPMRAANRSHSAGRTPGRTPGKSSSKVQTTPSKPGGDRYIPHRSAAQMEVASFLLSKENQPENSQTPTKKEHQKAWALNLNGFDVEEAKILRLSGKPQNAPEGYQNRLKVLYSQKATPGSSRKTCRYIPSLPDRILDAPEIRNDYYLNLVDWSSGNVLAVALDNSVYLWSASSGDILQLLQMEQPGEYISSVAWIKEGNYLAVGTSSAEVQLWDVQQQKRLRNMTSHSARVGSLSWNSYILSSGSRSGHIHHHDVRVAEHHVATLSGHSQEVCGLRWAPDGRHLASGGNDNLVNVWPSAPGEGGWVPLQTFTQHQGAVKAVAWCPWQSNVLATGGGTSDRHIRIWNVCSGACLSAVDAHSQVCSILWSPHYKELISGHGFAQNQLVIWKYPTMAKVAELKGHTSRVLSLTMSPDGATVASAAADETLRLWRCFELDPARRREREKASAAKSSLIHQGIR

Effect of a mutation on the interaction, decreasing interaction:
L778A
R776A
R657A
R388A
R775A
L391A
L660A

Variants of: B1
Conditions: with cdc20_human CDC20, Q12834
Remark: another data set of the same source

Effect of a mutation on the interaction, decreasing interaction:
L99A
R96A
